Results published in US8088609 (DANISCO US, dated 2012).
Where a chain is given by its changes, count along the chain named.

T1: Purified CEA (Biodesign International) (UniProt P06731 35-685)
T1 construct: Bought purified antigen, immobilized on 96-well plates at 5 ug/ml; also called carcinoembryonic antigen; target protein CEA
T1 sequence: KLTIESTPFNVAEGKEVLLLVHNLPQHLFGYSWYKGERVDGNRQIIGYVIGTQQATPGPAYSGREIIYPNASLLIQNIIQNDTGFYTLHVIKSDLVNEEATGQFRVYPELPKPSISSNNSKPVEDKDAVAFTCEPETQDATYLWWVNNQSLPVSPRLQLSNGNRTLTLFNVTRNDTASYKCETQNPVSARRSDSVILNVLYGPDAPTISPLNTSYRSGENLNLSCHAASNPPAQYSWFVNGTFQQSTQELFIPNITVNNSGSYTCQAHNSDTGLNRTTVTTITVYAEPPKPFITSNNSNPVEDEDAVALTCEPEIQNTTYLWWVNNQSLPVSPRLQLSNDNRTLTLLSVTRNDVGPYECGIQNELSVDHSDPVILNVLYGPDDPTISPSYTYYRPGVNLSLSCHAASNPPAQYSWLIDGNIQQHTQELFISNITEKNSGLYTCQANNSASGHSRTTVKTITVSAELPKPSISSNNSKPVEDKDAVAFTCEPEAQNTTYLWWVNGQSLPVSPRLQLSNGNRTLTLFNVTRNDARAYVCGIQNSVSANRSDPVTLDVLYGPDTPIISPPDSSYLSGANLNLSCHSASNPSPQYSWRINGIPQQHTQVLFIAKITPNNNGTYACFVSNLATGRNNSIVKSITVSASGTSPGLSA

B1: CAB1.11 molecule (scFv)
chain: DIVLTQSPASLSVSLGQRATMSCRAGESVDIFGVGFLHWYQQKPGQPPKLLIYRASNLESGIPVRFSGTGSGTDFTLIIDPVEADDVATYYCQQTNEDPYTFGGGTKLEIKGGGGSGGGGSGGGGSGGGGSGGGGSGGGGSEVQLQQSGAELVEPGASVKLSCTASGFNIKDTYMHWVKQRPEQGLEWIGRIDPANGNSKYVPKFQGKATITADTSSNTAYLQLTSLTSEDTAVYYCAPFGYYVSDYAMAYWGQGTSVTVSSTPVSEKQLAEVVANTITPLMKAQSVPGMAVAVIYQGKPHYYTFGKADIAANKPVTPQTLFELGSISKTFTGVLGGDAIARGEISLDDAVTRYWPQLTGKQWQGIRMLDLATYTAGGLPLQVPDEVTDNASLLRFYQNWQPQWKPGTTRLYANASIGLFGALAVKPSGMPYEQAMTTRVLKPLKLDHTWINVPKAEEAHYAWGYRDGKAVRVSPGMLDAQAYGVKTNVQDMANWVMANMAPENVADASLKQGIALAQSRYWRIGSMYQGLGWEMLNWPVEANTVVETSFGNVALAPLPVAEVNPPAPPVKASWVHKTGSTGGFGSYVAFIPEKQIGIVMLANTSYPNPARVEAAYHILEALQ
notes: scFv-BLA fusion; also called HR14.8; clone HR14.8
B2: CAB1.11i molecule (scFv)
chain: B1 chain with K283A, S586A
notes: Single-chain fusion of a T84.66-derived anti-CEA scFv (vL-(GGGGS)6-vH) to deimmunized beta-lactamase (BLA); also called encoded by plasmid pHR19.2

How the values were obtained:
[1] = molecular target: T1, Purified CEA (Biodesign International); assay: plate assay: CEA immobilized at 5 ug/ml, serially diluted B-Per extract, bound CAB read by nitrocefin hydrolysis at 490 nm
[2] = molecular target: T1, Purified CEA (Biodesign International); assay: plate assay: purified CEA immobilized at 5 ug/ml, 2-fold dilutions of purified CAB1.11i, bound BLA activity read with nitrocefin at 490 nm

Binder | binding result [1] | binding result [2]
B1 | binds | 
B2 |  | binds
